# Test results: paper PMC7566563
# pKd: −log10 of the molar value.
# Target: Cglo-CDPS-S32A (Candidatus Glomeribacter gigasporarum) (UniProt G2JBB2)
# Assay: EMSA
# Conditions: 8 mM MgCl2; apparent Kd, 3 experiments; 3'-phenylalanylated; native E. coli modifications (s4U8, D16, D20, psi32, psi39, ms2i6A37, m7G46, acp3U47, T54, psi55); EMSA: 75 nM tRNA, 0.1-15 uM enzyme, 20 min at 4 C in buffer A (10 mM MOPS pH 6.7, 200 mM NaCl, 8 mM MgCl2, 5 mM 2-mercaptoethanol); native 12% gel in 90 mM …
substance,measurement,value
Phe-tRNAPhe,pKd,5.80
